# Source: patent publication US20140072613A1, “Compositions and Methods for Treating Cutaneous Scarring” (priority 2012, published 2014)
# Columns and labels:
# Experiment in all cases: cell-based or functional assay
# Flt1(h) (human) = molecular target: T1, Flt1(h) (human) (UniProt P17948)
# T1 sequence (looked up): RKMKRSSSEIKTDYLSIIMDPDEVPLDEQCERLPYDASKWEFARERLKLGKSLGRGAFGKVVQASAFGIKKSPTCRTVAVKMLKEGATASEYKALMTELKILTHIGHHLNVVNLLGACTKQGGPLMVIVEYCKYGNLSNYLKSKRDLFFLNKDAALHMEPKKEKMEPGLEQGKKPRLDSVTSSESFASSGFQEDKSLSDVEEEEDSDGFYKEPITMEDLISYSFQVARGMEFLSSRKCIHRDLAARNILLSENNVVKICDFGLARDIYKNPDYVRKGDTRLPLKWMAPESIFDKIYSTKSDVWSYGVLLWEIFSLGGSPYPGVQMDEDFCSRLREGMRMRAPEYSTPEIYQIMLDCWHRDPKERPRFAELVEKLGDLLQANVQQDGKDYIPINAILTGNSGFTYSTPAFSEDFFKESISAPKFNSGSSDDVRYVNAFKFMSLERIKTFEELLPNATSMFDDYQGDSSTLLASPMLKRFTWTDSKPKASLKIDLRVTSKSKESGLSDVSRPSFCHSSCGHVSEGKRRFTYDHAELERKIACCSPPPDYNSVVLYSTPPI
# MARK1(h) (human) = MARK1(h) (human) (UniProt Q9P0L2)
# Sequence of MARK1(h) (human) (Q9P0L2 whole entry): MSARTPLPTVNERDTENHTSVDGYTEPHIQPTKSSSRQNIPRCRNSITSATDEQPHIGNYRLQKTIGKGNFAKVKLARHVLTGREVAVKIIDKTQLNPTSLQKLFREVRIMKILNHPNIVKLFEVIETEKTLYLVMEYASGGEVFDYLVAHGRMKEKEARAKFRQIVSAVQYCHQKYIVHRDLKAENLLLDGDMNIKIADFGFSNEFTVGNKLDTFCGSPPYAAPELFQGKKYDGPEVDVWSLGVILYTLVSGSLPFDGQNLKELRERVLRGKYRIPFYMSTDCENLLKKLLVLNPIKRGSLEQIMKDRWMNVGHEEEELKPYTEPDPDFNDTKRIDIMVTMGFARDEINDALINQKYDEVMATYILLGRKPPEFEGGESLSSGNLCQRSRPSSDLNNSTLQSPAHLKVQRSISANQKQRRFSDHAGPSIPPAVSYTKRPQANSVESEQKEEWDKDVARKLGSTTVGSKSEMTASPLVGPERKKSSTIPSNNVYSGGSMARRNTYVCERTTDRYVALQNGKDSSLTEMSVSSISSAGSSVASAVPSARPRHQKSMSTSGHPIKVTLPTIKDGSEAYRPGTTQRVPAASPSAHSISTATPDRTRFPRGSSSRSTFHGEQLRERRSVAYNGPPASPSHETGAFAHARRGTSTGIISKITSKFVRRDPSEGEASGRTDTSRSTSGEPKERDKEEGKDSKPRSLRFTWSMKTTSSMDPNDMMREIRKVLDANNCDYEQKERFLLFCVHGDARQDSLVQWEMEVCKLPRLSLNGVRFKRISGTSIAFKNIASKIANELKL
# PDGFRβ(h) (human) = PDGFRβ(h) (human) (UniProt P09619)
# Sequence of PDGFRβ(h) (human) (P09619 557-1106 limits assumed): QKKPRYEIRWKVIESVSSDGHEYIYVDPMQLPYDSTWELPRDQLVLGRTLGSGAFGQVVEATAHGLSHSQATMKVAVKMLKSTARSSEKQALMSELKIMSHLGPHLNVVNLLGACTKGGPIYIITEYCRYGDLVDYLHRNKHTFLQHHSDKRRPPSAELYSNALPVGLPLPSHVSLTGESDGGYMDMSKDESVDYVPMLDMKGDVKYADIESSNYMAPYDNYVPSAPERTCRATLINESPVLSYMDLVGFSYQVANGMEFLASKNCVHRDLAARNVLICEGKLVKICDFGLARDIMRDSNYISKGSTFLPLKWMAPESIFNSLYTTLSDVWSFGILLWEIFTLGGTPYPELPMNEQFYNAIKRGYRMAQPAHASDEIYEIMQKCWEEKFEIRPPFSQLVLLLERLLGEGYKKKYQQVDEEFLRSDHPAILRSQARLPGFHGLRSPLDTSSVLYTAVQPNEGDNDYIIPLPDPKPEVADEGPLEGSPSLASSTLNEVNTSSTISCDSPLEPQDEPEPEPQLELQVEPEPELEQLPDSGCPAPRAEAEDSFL
# Lyn(h) (human) = Lyn(h) (human) (UniProt P07948)
# Sequence of Lyn(h) (human) (P07948 whole entry): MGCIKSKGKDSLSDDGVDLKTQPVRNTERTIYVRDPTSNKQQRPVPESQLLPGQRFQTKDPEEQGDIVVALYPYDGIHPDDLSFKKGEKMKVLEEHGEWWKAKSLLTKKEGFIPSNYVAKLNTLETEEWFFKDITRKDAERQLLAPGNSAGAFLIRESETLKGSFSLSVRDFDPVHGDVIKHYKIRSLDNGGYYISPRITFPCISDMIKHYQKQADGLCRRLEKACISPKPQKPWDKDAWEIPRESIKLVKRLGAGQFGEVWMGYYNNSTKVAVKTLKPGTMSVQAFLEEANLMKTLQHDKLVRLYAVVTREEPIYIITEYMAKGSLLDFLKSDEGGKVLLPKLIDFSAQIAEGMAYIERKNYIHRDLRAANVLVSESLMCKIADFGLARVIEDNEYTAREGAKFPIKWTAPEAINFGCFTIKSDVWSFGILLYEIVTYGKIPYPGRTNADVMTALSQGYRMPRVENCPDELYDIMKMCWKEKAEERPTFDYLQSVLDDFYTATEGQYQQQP
# CaMKIV(h) (human) = CaMKIV(h) (human) (UniProt Q16566)
# Sequence of CaMKIV(h) (human) (Q16566 whole entry): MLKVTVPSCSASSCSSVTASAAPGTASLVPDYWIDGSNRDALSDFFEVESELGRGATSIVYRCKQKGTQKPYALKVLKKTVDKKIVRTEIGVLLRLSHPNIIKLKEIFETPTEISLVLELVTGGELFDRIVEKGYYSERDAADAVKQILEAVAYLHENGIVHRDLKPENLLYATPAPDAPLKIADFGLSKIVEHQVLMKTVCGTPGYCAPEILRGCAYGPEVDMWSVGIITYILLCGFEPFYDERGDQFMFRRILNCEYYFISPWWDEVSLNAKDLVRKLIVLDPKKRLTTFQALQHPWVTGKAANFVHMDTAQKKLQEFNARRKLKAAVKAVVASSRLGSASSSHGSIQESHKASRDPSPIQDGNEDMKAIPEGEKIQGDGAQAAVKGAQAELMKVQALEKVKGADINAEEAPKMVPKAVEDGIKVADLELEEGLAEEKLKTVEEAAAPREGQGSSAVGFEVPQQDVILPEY
# PDGFRα(h) (human) = PDGFRα(h) (human) (UniProt P16234)
# FGFR3(h) (human) = FGFR3(h) (human) (UniProt P22607)
# Sequence of FGFR3(h) (human) (P22607 397-806 limits assumed): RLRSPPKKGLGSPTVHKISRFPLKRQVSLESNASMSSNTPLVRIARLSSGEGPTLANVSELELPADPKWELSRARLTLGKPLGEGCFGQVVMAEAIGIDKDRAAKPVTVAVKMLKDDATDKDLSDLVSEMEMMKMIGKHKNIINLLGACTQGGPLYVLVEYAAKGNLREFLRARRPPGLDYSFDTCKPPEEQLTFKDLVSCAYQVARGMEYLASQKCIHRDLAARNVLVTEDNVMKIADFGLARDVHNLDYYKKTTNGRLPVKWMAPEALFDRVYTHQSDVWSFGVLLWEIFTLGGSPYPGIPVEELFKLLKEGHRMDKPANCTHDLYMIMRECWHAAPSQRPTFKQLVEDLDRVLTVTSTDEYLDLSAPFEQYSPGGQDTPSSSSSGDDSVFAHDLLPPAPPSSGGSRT
# Met(Y1248H)(h) (human) = Met(Y1248H)(h) (human) (UniProt P08581)
# NEK7(h) (human) = NEK7(h) (human) (UniProt Q8TDX7)
# Sequence of NEK7(h) (human) (Q8TDX7 whole entry): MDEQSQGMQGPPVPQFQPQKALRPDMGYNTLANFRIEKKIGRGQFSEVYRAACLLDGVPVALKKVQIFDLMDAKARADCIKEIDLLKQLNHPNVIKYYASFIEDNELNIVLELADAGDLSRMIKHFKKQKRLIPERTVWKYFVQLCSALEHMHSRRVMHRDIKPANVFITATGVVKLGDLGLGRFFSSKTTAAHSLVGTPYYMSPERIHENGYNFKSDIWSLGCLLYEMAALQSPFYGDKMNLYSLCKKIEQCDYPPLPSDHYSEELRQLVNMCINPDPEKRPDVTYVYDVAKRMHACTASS
# IR(h), activated (human) = IR(h), activated (human) (UniProt P06213)
# DYRK2(h) (human) = DYRK2(h) (human) (UniProt Q92630)
# Aurora-A(h) (human) = molecular target: T2, Aurora-A(h) (human) (UniProt O14965)
# T2 sequence (looked up): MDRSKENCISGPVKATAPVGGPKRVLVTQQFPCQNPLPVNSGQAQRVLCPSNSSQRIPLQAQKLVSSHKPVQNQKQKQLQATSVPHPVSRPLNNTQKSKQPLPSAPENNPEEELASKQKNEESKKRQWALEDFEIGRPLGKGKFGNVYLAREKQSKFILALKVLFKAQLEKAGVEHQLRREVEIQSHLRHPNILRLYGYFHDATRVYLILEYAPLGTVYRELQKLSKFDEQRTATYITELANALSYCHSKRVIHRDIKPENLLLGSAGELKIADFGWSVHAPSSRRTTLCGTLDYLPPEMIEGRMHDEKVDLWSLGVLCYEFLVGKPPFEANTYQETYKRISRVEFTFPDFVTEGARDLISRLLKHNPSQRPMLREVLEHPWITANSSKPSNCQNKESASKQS
# PAR-1Bα(h) (human) = PAR-1Bα(h) (human) (UniProt Q7KZI7)
# Sequence of PAR-1Bα(h) (human) (Q7KZI7 other isoform, or with tags, fused parts or gaps limits assumed): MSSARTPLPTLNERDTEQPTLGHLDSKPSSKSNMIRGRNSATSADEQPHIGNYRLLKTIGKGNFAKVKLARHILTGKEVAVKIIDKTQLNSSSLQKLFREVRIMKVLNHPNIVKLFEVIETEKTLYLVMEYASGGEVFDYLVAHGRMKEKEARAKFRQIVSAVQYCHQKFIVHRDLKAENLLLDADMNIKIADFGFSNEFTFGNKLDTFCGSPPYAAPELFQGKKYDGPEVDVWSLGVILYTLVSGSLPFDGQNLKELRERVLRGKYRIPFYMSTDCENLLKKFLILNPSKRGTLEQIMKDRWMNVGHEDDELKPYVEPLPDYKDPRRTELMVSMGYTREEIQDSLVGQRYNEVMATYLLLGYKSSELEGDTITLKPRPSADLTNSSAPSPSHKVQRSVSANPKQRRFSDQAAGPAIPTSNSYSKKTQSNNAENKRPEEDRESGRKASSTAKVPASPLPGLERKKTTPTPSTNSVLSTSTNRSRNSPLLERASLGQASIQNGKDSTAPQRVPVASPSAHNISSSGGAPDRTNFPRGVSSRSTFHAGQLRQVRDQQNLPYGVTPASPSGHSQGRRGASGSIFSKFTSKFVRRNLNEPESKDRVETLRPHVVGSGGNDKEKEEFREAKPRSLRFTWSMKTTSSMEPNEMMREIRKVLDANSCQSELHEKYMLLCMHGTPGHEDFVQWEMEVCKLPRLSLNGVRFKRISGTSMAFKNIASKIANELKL
# EphB3(h) (human) = EphB3(h) (human) (UniProt P54753)
# SGK2(h) (human) = molecular target: T3, SGK2(h) (human) (UniProt Q9HBY8)
# T3 sequence (looked up): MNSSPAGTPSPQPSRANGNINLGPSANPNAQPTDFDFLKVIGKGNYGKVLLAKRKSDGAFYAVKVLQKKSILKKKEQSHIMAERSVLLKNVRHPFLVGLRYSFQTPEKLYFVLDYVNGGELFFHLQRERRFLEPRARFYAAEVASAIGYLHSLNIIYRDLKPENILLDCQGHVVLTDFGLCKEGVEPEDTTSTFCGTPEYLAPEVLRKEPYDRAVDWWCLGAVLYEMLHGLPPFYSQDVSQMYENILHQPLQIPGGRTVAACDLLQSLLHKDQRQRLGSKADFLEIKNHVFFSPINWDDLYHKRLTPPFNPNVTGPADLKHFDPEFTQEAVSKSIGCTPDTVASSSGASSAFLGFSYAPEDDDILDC
# MELK(h) (human) = MELK(h) (human) (UniProt Q14680)
# Aurora-B(h) (human) = Aurora-B(h) (human) (UniProt Q96GD4)
# Sequence of Aurora-B(h) (human) (Q96GD4 whole entry): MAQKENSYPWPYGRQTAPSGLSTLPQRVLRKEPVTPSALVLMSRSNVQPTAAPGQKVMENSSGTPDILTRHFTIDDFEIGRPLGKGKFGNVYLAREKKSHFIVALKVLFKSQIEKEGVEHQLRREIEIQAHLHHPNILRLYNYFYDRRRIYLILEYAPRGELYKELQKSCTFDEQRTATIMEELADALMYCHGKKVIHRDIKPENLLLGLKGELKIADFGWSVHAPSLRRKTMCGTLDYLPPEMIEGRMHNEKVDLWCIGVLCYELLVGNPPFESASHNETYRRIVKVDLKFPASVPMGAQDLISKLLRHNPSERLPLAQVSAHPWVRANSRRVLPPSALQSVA
# JAK3(h) (human) = JAK3(h) (human) (UniProt P52333)
# MLK1(h) (human) = MLK1(h) (human) (UniProt P80192)
# Sequence of MLK1(h) (human) (P80192 132-413 limits assumed): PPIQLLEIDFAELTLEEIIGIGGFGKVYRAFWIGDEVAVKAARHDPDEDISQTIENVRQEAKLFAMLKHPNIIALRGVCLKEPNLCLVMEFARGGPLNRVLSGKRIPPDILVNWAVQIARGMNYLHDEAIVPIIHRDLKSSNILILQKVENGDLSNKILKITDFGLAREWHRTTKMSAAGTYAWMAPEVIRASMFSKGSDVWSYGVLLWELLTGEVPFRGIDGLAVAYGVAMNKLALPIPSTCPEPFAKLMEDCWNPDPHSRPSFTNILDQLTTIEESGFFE
# Abl(Y253F)(h) (human) = Abl(Y253F)(h) (human) (UniProt P00519)
# CHK2(h) (human) = CHK2(h) (human) (UniProt O96017)
# Sequence of CHK2(h) (human) (O96017 5-543 limits assumed): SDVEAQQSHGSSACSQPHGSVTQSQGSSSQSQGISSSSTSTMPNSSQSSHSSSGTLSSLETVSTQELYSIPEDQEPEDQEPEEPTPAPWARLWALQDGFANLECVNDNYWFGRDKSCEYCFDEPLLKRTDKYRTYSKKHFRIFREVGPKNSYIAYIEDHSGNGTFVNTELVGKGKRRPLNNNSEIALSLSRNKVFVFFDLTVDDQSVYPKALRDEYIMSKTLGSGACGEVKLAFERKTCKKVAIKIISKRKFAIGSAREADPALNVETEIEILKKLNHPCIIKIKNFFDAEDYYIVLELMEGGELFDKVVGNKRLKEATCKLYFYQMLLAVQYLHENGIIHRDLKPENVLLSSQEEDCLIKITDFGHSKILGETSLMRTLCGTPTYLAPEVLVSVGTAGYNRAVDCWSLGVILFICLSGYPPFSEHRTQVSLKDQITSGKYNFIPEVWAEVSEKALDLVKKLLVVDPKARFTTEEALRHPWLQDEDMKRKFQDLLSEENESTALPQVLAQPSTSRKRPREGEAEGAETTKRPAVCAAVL
# SGK3(h) (human) = molecular target: T4, SGK3(h) (human) (UniProt Q96BR1)
# T4 sequence (looked up): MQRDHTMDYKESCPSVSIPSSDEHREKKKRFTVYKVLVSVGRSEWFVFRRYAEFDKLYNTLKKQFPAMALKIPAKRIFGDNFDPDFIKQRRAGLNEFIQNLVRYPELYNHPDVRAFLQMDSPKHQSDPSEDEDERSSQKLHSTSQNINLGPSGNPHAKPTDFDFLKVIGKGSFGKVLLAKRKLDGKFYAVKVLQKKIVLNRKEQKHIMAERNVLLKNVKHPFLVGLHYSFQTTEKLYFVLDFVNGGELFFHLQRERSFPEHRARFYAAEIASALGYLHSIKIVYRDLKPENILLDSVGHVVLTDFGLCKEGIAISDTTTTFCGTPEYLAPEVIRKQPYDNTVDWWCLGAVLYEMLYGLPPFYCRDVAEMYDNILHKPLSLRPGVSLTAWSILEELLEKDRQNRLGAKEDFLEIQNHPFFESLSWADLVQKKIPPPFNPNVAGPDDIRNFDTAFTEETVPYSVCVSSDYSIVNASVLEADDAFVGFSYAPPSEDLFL
substance,measurement,setting,value
MMI-0500 (peptide),"% activity, 100 µM",Flt1(h) (human),27%
same,"% activity, 100 µM",MARK1(h) (human),110%
same,"% activity, 100 µM",PDGFRβ(h) (human),40%
same,"% activity, 100 µM",Lyn(h) (human),31%
same,"% activity, 100 µM",CaMKIV(h) (human),-1%
same,"% activity, 100 µM",PDGFRα(h) (human),40%
same,"% activity, 100 µM",FGFR3(h) (human),10%
same,"% activity, 100 µM",Met(Y1248H)(h) (human),126%
same,"% activity, 100 µM",NEK7(h) (human),89%
same,"% activity, 100 µM","IR(h), activated (human)",90%
same,"% activity, 100 µM",DYRK2(h) (human),127%
same,"% activity, 100 µM",Aurora-A(h) (human),110%
same,"% activity, 100 µM",PAR-1Bα(h) (human),97%
same,"% activity, 100 µM",EphB3(h) (human),79%
same,"% activity, 100 µM",SGK2(h) (human),-1%
same,"% activity, 100 µM",MELK(h) (human),0%
same,"% activity, 100 µM",Aurora-B(h) (human),5%
same,"% activity, 100 µM",JAK3(h) (human),95%
same,"% activity, 100 µM",MLK1(h) (human),43%
same,"% activity, 100 µM",Abl(Y253F)(h) (human),29%
same,"% activity, 100 µM",CHK2(h) (human),13%
same,"% activity, 100 µM",SGK3(h) (human),-3%
